Source: paper PMC7736783 (Nucleic Acids Research, 2020)

Biological target: MTA1 (BAH-ELM2-SANT-ZnF);HDAC1;MBD2 (Homo sapiens?;Homo sapiens?;Homo …, UniProt Q13330;Q13547;Q9UBB5 1-453;1-482;145-411, ||)
Experiment: EMSA; 1 uM DNA with 1- to 10-fold excess of complex; single bound species; EMSA: 20 mM HEPES pH 7.0, 75 mM potassium acetate, 2 mM DTT, 20 min on ice; 5% acrylamide gel in 0.5x TB
Settings: protein: recombinant;recombinant;recombinant; tags: His10-Flag3 N-terminal, removed by TEV;none;none; chain copies: 2;2;1; label: none (ethidium bromide stain); blunt (annealed complementary oligonucleotides)

Chain of MTA1 (BAH-ELM2-SANT-ZnF);HDAC1;MBD2 (Q13330 1-453, chain 1 of 3): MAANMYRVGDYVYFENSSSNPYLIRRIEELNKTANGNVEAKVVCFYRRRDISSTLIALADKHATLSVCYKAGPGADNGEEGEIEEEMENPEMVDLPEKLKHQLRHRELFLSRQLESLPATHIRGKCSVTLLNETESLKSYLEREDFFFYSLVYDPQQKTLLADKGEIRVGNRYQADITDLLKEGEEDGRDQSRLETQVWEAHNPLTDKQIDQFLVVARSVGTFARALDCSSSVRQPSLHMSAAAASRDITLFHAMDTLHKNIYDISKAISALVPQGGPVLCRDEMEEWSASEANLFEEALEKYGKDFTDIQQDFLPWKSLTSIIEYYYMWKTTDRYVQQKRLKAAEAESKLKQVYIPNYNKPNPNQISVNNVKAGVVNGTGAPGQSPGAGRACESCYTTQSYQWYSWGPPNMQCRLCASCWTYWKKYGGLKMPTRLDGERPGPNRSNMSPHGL
Chain of MTA1 (BAH-ELM2-SANT-ZnF);HDAC1;MBD2 (Q13547 whole entry, chain 2 of 3): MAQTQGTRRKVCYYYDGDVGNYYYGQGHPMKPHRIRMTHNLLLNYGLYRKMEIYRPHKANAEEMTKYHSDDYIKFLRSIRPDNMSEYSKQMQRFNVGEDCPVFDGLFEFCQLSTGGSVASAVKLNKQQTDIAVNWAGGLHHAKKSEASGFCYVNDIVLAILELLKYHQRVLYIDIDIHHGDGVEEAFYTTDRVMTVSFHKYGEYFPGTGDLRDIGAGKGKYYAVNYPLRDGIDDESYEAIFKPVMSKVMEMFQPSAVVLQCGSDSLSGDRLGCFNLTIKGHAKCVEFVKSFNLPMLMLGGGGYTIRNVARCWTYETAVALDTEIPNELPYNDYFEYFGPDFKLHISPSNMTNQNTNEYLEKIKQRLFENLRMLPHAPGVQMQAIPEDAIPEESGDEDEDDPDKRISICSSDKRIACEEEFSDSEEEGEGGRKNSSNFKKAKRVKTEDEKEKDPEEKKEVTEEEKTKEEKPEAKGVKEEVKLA
Chain of MTA1 (BAH-ELM2-SANT-ZnF);HDAC1;MBD2 (Q9UBB5 145-411, chain 3 of 3): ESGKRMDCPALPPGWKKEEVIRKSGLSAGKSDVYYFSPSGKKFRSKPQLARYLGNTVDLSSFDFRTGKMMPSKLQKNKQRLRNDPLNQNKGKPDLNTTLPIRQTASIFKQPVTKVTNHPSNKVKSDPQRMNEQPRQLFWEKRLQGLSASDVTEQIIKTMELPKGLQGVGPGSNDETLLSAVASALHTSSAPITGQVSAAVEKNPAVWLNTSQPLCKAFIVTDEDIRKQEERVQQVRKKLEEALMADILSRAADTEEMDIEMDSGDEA

B1: methylated DNA duplex 15 nt (dsDNA)
DNA 1: GGAATCGGCTCATGC
DNA 2: GCATGAGCCGATTCC
modifications: 5-methylcytosine at C6 of strand 1 (printed mC in CpG); methylation of the complementary strand not stated
binding result: binds
